Patent US10562947B2, “Compositions and methods for preventing or treating diseases, conditions or processes characterized by aberrant fibroblast proliferation and extracellular matrix deposition” (MOERAE MATRIX, INC., priority 2011, dated 2020)

Columns and labels:
Test in all cases: Kinase Profiling Assay
Type in all cases: biochemical
Settings in all cases: 100 μM peptide
Abl(T315I)(h) = Abl(T315I)(h) (Homo sapiens, UniProt P00519, T315I)
How it was run: (§1)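 Each kinase in a 266-member human panel is assayed, in duplicate, for activity in the presence of MK2 inhibitory peptides to gauge specificity.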

EGFR(T790M,L858R)(h) = EGFR(T790M,L858R)(h) (Homo sapiens, UniProt P00533, L858R/T790M)
How it was run: as §1

EGFR(h) = EGFR(h) (Homo sapiens, UniProt P00533)
How it was run: as §1

LKB1(h) = molecular target: T1, LKB1(h) (Homo sapiens, UniProt Q15831)
T1 sequence (Q15831 1-433): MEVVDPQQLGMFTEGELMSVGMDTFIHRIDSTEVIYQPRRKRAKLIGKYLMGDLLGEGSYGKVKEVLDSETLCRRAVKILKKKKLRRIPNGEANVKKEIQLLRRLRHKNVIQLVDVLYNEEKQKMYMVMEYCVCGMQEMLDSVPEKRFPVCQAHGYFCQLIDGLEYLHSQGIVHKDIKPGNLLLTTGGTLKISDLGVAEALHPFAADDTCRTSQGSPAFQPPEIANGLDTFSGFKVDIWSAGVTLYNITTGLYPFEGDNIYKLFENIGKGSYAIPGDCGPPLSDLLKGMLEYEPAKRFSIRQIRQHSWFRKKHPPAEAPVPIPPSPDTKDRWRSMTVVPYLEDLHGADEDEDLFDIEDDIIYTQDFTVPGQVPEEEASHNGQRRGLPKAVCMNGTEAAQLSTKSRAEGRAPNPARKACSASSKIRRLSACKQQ
T1 sequence (Q7RTN6 1-431 partner): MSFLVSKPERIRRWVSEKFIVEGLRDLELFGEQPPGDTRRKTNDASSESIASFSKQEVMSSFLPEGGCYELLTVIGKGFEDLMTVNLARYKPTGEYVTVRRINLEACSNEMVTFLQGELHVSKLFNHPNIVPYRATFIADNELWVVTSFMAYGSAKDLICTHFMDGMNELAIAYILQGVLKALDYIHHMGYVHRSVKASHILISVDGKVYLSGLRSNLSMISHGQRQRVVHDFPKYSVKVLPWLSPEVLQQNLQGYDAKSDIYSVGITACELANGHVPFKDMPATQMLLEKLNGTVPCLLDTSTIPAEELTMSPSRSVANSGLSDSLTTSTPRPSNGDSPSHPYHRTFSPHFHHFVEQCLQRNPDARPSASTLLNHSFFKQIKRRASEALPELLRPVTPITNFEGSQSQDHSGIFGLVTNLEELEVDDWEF
T1 sequence (Q9Y376 1-341 partner): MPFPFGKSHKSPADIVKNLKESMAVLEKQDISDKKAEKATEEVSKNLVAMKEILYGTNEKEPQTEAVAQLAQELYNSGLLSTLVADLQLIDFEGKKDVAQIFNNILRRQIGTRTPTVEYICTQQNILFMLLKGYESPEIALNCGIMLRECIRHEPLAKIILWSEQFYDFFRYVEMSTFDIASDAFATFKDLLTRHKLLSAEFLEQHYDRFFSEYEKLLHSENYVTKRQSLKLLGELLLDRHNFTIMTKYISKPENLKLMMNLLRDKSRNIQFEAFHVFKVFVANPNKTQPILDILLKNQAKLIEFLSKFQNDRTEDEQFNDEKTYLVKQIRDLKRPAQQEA
How it was run: as §1

MSK1(h) = MSK1(h) (Homo sapiens, UniProt O75582)
Chain of MSK1(h) (O75582 whole entry): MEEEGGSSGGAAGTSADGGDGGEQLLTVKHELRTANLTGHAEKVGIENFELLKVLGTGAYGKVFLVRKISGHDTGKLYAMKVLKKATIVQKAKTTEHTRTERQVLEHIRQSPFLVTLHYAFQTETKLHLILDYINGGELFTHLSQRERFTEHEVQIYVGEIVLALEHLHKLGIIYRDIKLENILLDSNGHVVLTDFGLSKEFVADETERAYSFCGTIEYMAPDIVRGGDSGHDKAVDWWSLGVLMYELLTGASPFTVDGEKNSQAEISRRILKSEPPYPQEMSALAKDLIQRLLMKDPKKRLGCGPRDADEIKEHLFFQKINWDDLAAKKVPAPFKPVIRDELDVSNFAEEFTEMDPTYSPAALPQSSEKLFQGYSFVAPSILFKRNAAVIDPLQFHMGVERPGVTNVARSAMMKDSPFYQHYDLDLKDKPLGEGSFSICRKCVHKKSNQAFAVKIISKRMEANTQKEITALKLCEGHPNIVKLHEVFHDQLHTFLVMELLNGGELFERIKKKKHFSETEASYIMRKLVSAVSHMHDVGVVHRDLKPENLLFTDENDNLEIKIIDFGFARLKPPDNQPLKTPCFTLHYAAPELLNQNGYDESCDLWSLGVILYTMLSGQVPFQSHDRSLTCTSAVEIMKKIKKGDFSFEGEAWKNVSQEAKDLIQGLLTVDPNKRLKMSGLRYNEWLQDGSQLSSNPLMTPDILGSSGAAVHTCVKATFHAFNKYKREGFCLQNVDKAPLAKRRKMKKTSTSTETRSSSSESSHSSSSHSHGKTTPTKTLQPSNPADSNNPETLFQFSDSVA
How it was run: as §1

Met(D1246H)(h) = Met(D1246H)(h) (Homo sapiens, UniProt P08581, D1228H)
How it was run: as §1

Met(Y1248C)(h) = Met(Y1248C)(h) (Homo sapiens, UniProt P08581, Y1230C)
How it was run: as §1

PKBβ(h) = PKBβ(h) (Homo sapiens, UniProt P31751)
Chain of PKBβ(h) (P31751 whole entry): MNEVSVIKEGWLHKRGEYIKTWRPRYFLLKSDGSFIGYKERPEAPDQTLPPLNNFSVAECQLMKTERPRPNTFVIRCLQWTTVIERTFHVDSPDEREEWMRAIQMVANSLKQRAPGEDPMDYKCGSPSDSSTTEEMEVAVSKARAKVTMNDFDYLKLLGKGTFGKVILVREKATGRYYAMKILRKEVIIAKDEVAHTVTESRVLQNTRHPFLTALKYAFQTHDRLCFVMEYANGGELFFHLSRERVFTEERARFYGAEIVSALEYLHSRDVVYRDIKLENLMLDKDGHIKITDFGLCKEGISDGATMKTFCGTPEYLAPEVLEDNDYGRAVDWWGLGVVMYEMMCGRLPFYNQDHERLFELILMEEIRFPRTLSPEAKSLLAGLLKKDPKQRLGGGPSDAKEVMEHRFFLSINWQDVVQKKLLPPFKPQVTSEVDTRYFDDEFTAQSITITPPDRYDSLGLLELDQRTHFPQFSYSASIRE
How it was run: as §1

PKCβI(h) = PKCβI(h) (Homo sapiens, UniProt P05771)
Chain of PKCβI(h) (P05771 whole entry): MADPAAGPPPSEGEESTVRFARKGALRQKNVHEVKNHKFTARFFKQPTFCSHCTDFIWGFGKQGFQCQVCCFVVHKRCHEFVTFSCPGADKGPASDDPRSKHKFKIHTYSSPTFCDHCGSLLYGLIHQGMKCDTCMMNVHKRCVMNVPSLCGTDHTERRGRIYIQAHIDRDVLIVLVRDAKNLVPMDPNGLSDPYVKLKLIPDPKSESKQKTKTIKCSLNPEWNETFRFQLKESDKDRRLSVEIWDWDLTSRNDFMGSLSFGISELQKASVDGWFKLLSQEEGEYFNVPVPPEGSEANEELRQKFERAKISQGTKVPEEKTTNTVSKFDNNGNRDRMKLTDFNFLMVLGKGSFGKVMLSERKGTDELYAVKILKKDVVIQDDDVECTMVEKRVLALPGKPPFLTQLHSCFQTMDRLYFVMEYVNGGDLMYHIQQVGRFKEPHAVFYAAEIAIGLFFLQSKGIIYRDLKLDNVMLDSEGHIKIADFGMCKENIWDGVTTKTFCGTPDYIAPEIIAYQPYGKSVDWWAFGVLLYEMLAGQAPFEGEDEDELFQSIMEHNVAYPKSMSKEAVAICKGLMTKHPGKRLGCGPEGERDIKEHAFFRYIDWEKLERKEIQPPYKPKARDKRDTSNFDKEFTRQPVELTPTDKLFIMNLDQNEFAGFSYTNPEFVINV
How it was run: as §1

PKG1β(h) = molecular target: T2, PKG1β(h) (Homo sapiens, UniProt Q13976)
T2 construct: purchased Millipore (IC50 Profiler Express service)
T2 sequence (Q13976 1-686 isoform Q13976-2): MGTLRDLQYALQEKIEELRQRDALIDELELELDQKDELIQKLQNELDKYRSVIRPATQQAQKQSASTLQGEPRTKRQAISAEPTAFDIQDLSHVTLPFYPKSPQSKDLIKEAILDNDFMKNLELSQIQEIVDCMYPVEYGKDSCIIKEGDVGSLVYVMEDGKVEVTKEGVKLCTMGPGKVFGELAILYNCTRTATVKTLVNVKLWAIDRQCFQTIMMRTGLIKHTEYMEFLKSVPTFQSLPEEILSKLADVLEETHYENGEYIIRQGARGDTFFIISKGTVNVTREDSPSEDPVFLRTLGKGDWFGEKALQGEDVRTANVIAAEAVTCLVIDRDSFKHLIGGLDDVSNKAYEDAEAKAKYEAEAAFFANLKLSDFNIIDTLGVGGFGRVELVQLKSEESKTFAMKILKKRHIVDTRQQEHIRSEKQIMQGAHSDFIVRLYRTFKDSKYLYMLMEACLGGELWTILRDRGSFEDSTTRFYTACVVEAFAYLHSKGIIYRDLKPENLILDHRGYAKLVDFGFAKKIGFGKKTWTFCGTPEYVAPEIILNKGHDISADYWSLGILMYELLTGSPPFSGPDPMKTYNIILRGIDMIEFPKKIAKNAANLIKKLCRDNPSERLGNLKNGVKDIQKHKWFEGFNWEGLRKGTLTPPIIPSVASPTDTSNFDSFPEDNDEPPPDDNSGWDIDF
How it was run: as §1

Ron(h) = molecular target: T3, Ron(h) (Homo sapiens, UniProt Q04912)
T3 construct: purchased Millipore (IC50 Profiler Express service)
How it was run: as §1

SAPK2a(h) = SAPK2a(h) (Homo sapiens, UniProt Q16539)
Chain of SAPK2a(h) (Q16539 whole entry): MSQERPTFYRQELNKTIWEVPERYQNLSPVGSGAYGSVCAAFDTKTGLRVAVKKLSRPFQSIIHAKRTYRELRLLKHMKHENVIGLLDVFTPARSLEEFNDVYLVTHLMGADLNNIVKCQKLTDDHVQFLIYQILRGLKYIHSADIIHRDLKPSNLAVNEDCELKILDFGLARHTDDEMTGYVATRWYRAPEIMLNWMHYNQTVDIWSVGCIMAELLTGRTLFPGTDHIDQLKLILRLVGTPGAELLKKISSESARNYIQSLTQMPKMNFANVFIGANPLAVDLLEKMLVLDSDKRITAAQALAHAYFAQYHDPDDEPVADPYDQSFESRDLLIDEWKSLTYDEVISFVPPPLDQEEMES
How it was run: as §1

Src(1-530)(h) = molecular target: T4, Src(1-530)(h) (Homo sapiens, UniProt P12931)
T4 construct: Src(1-530)
How it was run: as §1

cKit(V654A)(h) = cKit(V654A)(h) (Homo sapiens, UniProt P10721, V654A)
How it was run: as §1

cKit(h) = cKit(h) (Homo sapiens, UniProt P10721)
How it was run: as §1

HRRIKAWLKKIKALARQLGVAA (Mammalian) [MMI-0500]
Abl(T315I)(h) % activity (Abl(T315I)(h)): 16% | EGFR(T790M,L858R)(h) % activity (EGFR(T790M,L858R)(h)): 53% | EGFR(h) % activity (EGFR(h)): −1% | LKB1(h) % activity (LKB1(h)): 51% | MSK1(h) % activity (MSK1(h)): 8% | Met(D1246H)(h) % activity (Met(D1246H)(h)): 150% | Met(Y1248C)(h) % activity (Met(Y1248C)(h)): 73% | PKBβ(h) % activity (PKBβ(h)): 21% | PKCβI(h) % activity (PKCβI(h)): 1% | PKG1β(h) % activity (PKG1β(h)): 24% | Ron(h) % activity (Ron(h)): 46% | SAPK2a(h) % activity (SAPK2a(h)): 52% | Src(1-530)(h) % activity (Src(1-530)(h)): 21% | cKit(V654A)(h) % activity (cKit(V654A)(h)): 223% | cKit(h) % activity (cKit(h)): 45%

KAFAKLAARLYRKALARQLGVAA [MMI-0400]
EGFR(T790M,L858R)(h) % activity (EGFR(T790M,L858R)(h)): 78% | EGFR(h) % activity (EGFR(h)): 16% | LKB1(h) % activity (LKB1(h)): 89% | MSK1(h) % activity (MSK1(h)): 28% | Met(D1246H)(h) % activity (Met(D1246H)(h)): 68% | Met(Y1248C)(h) % activity (Met(Y1248C)(h)): 36% | PKBβ(h) % activity (PKBβ(h)): 98% | PKCβI(h) % activity (PKCβI(h)): 78% | PKG1β(h) % activity (PKG1β(h)): 53% | Ron(h) % activity (Ron(h)): 79% | SAPK2a(h) % activity (SAPK2a(h)): 85% | Src(1-530)(h) % activity (Src(1-530)(h)): 19% | cKit(V654A)(h) % activity (cKit(V654A)(h)): 150% | cKit(h) % activity (cKit(h)): 43%

FAKLAARLYRKALARQLGVAA [MMI-0300]
Abl(T315I)(h) % activity (Abl(T315I)(h)): 97% | EGFR(T790M,L858R)(h) % activity (EGFR(T790M,L858R)(h)): 85% | EGFR(h) % activity (EGFR(h)): 21% | LKB1(h) % activity (LKB1(h)): 101% | MSK1(h) % activity (MSK1(h)): 32% | Met(D1246H)(h) % activity (Met(D1246H)(h)): 125% | Met(Y1248C)(h) % activity (Met(Y1248C)(h)): 84% | PKBβ(h) % activity (PKBβ(h)): 84% | PKCβI(h) % activity (PKCβI(h)): 78% | PKG1β(h) % activity (PKG1β(h)): 50% | Ron(h) % activity (Ron(h)): 93% | SAPK2a(h) % activity (SAPK2a(h)): 90% | Src(1-530)(h) % activity (Src(1-530)(h)): 23% | cKit(V654A)(h) % activity (cKit(V654A)(h)): 134% | cKit(h) % activity (cKit(h)): 53%

YARAAARQARAKALNRQLGVA (Mammalian) [MMI-0200]
Abl(T315I)(h) % activity (Abl(T315I)(h)): 108% | EGFR(T790M,L858R)(h) % activity (EGFR(T790M,L858R)(h)): 108% | EGFR(h) % activity (EGFR(h)): 83% | LKB1(h) % activity (LKB1(h)): 99% | MSK1(h) % activity (MSK1(h)): 50% | Met(D1246H)(h) % activity (Met(D1246H)(h)): 139% | Met(Y1248C)(h) % activity (Met(Y1248C)(h)): 141% | PKBβ(h) % activity (PKBβ(h)): 250% | PKCβI(h) % activity (PKCβI(h)): 98% | PKG1β(h) % activity (PKG1β(h)): 57% | Ron(h) % activity (Ron(h)): 120% | Src(1-530)(h) % activity (Src(1-530)(h)): 75% | cKit(h) % activity (cKit(h)): 110%
